From paper PMC6849236

Legend:
[1] = biological target: CBM3-CtCoh-CcsCoh-RfCoh synthetic mini-scaffoldin (C. thermocellum ATCC 27405 | C. cellulovorans ATCC 35296 | R. flavefaciens)
[2] = biological target: CBM3-CtCoh-CcsCoh-RfCoh synthetic mini-scaffoldin (C. thermocellum ATCC 27405 | C. cellulovorans ATCC 35296 | R. flavefaciens); assay: pull-down; RAC pull-down: cell lysate supernatants of dockerin-containing enzymes (in slight excess) mixed with 0.5 mL cell lysate supernatant of CBM3-Scaf3, 2 mg RAC added, room temperature 5 min; RAC pellet washed three times in 100 mM HEPES pH 7.5, 50 mM NaCl, 1 mM CaCl2; 12% SDS-PAGE, band intensities

CDP-CtDoc, sequence (A3DH67 whole entry): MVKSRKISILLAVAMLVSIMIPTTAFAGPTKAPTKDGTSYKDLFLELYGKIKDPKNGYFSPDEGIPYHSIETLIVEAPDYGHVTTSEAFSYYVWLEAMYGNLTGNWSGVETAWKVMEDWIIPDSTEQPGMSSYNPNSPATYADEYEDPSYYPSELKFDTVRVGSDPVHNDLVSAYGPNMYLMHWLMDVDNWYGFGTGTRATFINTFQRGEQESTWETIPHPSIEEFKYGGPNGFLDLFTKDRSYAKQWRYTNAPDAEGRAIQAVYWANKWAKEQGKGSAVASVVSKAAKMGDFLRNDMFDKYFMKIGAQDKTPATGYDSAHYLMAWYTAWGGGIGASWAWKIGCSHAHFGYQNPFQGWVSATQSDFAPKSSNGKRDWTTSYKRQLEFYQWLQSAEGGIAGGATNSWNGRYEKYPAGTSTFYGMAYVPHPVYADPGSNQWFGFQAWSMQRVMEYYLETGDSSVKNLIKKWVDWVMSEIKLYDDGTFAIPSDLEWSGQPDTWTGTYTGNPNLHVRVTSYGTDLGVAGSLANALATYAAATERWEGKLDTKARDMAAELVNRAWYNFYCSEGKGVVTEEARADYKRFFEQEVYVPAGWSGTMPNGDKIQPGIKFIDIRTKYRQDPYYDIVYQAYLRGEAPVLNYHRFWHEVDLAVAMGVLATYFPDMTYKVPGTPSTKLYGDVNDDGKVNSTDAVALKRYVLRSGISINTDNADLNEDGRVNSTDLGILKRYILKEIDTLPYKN

Substance | specific activity of RAC immobilized CBM3-Scaf3/CDP-CtDoc; 0.5 mL cell lysate supernatant of CBM3-Scaf3 mixed with different volumes of CDP-CtDoc supernatant, highest at 1 mL, no increase with excess [1] | stoichiometry N [2] | specific activity of RAC immobilized CBM3-Scaf3/CDP-RfDoc; 0.5 mL cell lysate supernatant of CBM3-Scaf3 mixed with CDP-RfDoc supernatant, highest at 2 mL [1] | specific activity of RAC immobilized CBM3-Scaf3/PGM-CcsDoc; 0.5 mL cell lysate supernatant of CBM3-Scaf3 mixed with PGM-CcsDoc supernatant, highest at 2 mL [1] | specific activity of RAC immobilized CBM3-Scaf3/PGM-RfDoc; 0.5 mL cell lysate supernatant of CBM3-Scaf3 mixed with PGM-RfDoc supernatant, highest at 2 mL [1]
CDP-CtDoc (from UniProt A3DH67 673-741) (enzyme) | 0.72 U mL^−1 | 1 |  |  | 
CDP-RfDoc (from UniProt Q9AE53 787-879) (enzyme) |  | 1 | 0.71 U mL^−1 |  | 
PGM-CcsDoc (enzyme) |  | 1 |  | 23 U mL^−1 | 
PGM-RfDoc (from UniProt Q9AE53 787-879) (enzyme) |  | 1 |  |  | 22.4 U mL^−1
